Test results as given in the supplement of paper PMC10598134.
± gives the standard deviation.

Assay: collision cross section of modified peptide (TIMS, N2, iRT-aligned); higher = larger / more extended gas-phase ion
Protocol: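 1/K0 was aligned run-wise to spiked iRT peptides and converted to CCS in N2 (Mason-Schamp). Values are the mean of 1-3 technical replicates for the most abundant feature at each charge state.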

[1] = charge state: 2, modification: Biotin
[2] = charge state: 3, modification: Biotin
[3] = charge state: 2, modification: Succinyl
[4] = charge state: 2, modification: GlyGly (K)
[5] = charge state: 3, modification: GlyGly (K)
[6] = charge state: 2, modification: Glutarylation
[7] = charge state: 3, modification: Glutarylation
[8] = charge state: 2, modification: Methyl (K)
[9] = charge state: 3, modification: Methyl (K)
[10] = charge state: 2, modification: Phospho (Y)
[11] = charge state: 3, modification: Phospho (Y)
[12] = charge state: 2, modification: Nitro (Y)
[13] = charge state: 2, modification: hydroxyisobutyryl

VGVEAKQPNSAIR [_VGVEAKQP(Hydroxyproline)NSAIR_]
collision cross section (charge state: 2, modification: Hydroxyproline): 405.11 ± 0.27 Å²
collision cross section (charge state: 3, modification: Hydroxyproline): 482.65 ± 0.83 Å²

TLQKQSVVYGGK [_TLQK(Propionyl)QSVVYGGK_]
collision cross section (charge state: 2, modification: Propionyl): 393.92 ± 0.49 Å²

DSSPTTNSKLSALQR [_DSSPTTNSK(Biotin)LSALQR_]
collision cross section [1]: 447.16 ± 2.3 Å²
collision cross section [2]: 519.36 ± 0.34 Å²

ITASLCDLKSR [_ITASLCDLK(Succinyl)SR_]
collision cross section [3]: 384.23 ± 0.76 Å²

DLGKFQVATDALK [_DLGK(GlyGly (K))FQVATDALK_]
collision cross section [4]: 422.76 ± 0.97 Å²
collision cross section [5]: 498.2 ± 1.1 Å²

GEVQVSDKER [_GEVQVSDK(GlyGly (K))ER_]
collision cross section [4]: 370.72 ± 1.1 Å²
collision cross section [5]: 432.88 ± 2.5 Å²

SLKLNTAEDAK [_SLK(Crotonyl)LNTAEDAK_]
collision cross section (charge state: 2, modification: Crotonyl): 378.17 ± 0.26 Å²

IVSGKDYNVTANSK [_IVSGK(Gluratylation)DYNVTANSK_]
collision cross section [6]: 417.68 ± 1.5 Å²
collision cross section [7]: 473.57 ± 2.4 Å²

VSPASSVDSNIPSSQGYKK [_VSPASSVDSNIPSSQGYK(Methyl (K))K_]
collision cross section [8]: 486.85 ± 1.2 Å²
collision cross section [9]: 544.11 ± 0.42 Å²

TQDQISNIKYHEEFEK [_TQDQISNIK(Gluratylation)YHEEFEK_]
collision cross section [7]: 554.46 ± 0.14 Å²

VGTASVLQPVKK [_VGTASVLQPVK(GlyGly (K))K_]
collision cross section [4]: 404.53 ± 0.36 Å²
collision cross section [5]: 466.32 ± 0.78 Å²

GRGAANDSTQFTVAGR [_GR(Methyl (R))GAANDSTQFTVAGR_]
collision cross section (charge state: 3, modification: Methyl (R)): 468.2 ± 2.7 Å²

IISSIEQKEENK [_IISSIEQK(Butyryl)EENK_]
collision cross section (charge state: 2, modification: Butyryl): 408.13 ± 0.85 Å²
collision cross section (charge state: 3, modification: Butyryl): 479 Å²

TQAYQDQKPGTSGLR [_TQAYQDQK(Biotin)PGTSGLR_]
collision cross section [1]: 446.01 ± 0.23 Å²
collision cross section [2]: 500.74 ± 0.34 Å²

DTGEKLTVAENEAETK [_DTGEK(GlyGly (K))LTVAENEAETK_]
collision cross section [4]: 443.91 ± 1.6 Å²
collision cross section [5]: 490.28 ± 1.9 Å²

THLAPYSDELR [_THLAPY(Phospho (Y))SDELR_]
collision cross section [10]: 373.88 ± 0.063 Å²
collision cross section [11]: 446.73 ± 1.1 Å²

LQIASDENYK [_LQIASDENY(Nitro (Y))K_]
collision cross section [12]: 364.55 ± 1.2 Å²

IDLPAENSNSETIIITGKR [_IDLPAENSNSETIIITGK(Gluratylation)R_]
collision cross section [6]: 499.21 ± 1.9 Å²

ANEKTESSSAQQVAVSR [_ANEK(Acetyl (K))TESSSAQQVAVSR_]
collision cross section (charge state: 2, modification: Acetyl (K)): 433.42 ± 1.8 Å²
collision cross section (charge state: 3, modification: Acetyl (K)): 527.9 ± 0.37 Å²

ALLQAKASGK [_ALLQAK(Trimethyl (K))ASGK_]
collision cross section (charge state: 2, modification: Trimethyl (K)): 354.6 ± 1.6 Å²
collision cross section (charge state: 3, modification: Trimethyl (K)): 406.65 Å²

AAINQKLIETGER [_AAINQK(hydroxyisobutyryl)LIETGER_]
collision cross section [13]: 409.76 ± 0.32 Å²
collision cross section (charge state: 3, modification: hydroxyisobutyryl): 478.62 Å²

AAQASDLEKIHLDEK [_AAQASDLEK(Methyl (K))IHLDEK_]
collision cross section [8]: 449.24 Å²
collision cross section [9]: 507.05 ± 2 Å²

GTISAPGKVVTAAAQAK [_GTISAPGK(Formyl)VVTAAAQAK_]
collision cross section (charge state: 2, modification: Formyl): 440.5 ± 0.16 Å²
collision cross section (charge state: 3, modification: Formyl): 511.74 ± 2.1 Å²

LSEHATAPTR [_LSEHATAPT(HexNAc (ST))R_]
collision cross section (charge state: 2, modification: HexNAc (ST)): 370.75 ± 0.68 Å²
collision cross section (charge state: 3, modification: HexNAc (ST)): 450.64 ± 0.17 Å²

VDIDVPDVNIEGPDAKLK [_VDIDVPDVNIEGPDAK(hydroxyisobutyryl)LK_]
collision cross section [13]: 489.94 Å²

GAEKTEVAEPR [_GAEK(Succinyl)TEVAEPR_]
collision cross section [3]: 372.49 ± 0.4 Å²

APEYLHR [_APEY(Phospho (Y))LHR_]
collision cross section [10]: 334.14 ± 1.5 Å²

IQTKAGEATVK [_IQTK(Methyl (K))AGEATVK_]
collision cross section [8]: 367.02 ± 0.38 Å²

TSYAQHQQVR [_TSY(Phospho (Y))AQHQQVR_]
collision cross section [10]: 370.43 ± 0.064 Å²
collision cross section [11]: 475.13 ± 0.98 Å²

YIGTGHADTTK [_Y(Phospho (Y))IGTGHADTTK_]
collision cross section [10]: 372.65 ± 0.75 Å²

YLHDESGLNR [_Y(Nitro (Y))LHDESGLNR_]
collision cross section [12]: 366.66 ± 0.46 Å²
collision cross section (charge state: 3, modification: Nitro (Y)): 429.41 ± 1.1 Å²

DYSAPVNFISAGLKK [_DYSAPVNFISAGLK(Malonyl)K_]
collision cross section (charge state: 2, modification: Malonyl): 442.5 ± 1.7 Å²
collision cross section (charge state: 3, modification: Malonyl): 530.16 Å²
